The record followed here is US20140287419A1, “Compositions Having Dicamba Decarboxylase Activity and Methods of Use” (priority 2013, published 2014).

First the molecules themselves.
B1: 94 (protein, listed as Bacillus thuringiensis)
chain: MANRGDSNMKSLVGVIMGSTSDWETMKYACDILDELNIPYEKKVVSAHRTPDYMFEYAETARERGLKVIIAGAGGAAHLPGMVAAKTNLPVIGVPVQSKALNGLDSLLSIVQMPGGVPVATVAIGKAGSTNAGLLAAQILGSFHDDIHDALELRREAIEKDVREGSELV
B2: 96 (protein)
chain: MAPLIVDVHTHVYPPAYMQMLRSRKTVPYVHDPSNNRDPRLIILSSDDDASIPLDQRGRPVDSSYWDINVKLSFMRQHGINCSVISLANPWLDFVEPAEAQMWAERINDDLEKTCATVNKAADPGNTLTLDQKETLFAFGALPLSAPSSESVVAEIKRLKTLEHLRGVIMGTSGLGKGLDDARLDPVWEALQETDMLMFLHPHYGLPEEAYGGPETTGRYGHVLPLALGFPLETTIAVTRMLLSGVFDRFPRLKILLAHSGGTLPFLAGRIESCILHERKFISGGGDVQGPQRSVWDVLKTNIYLDAVVYGKPGLEAAMTASGSDRLLFGTDHPFFPPLDSKDNSWPSVTTNYQAIHATFDTNSKTVADVLGGNAARILNLK
modifications: Aspergillus nidulans
B3: 106 (protein, listed as Pyrococcus horikoshii)
chain: MAGMKFIKNLHVSKLVIDSMKALINGTIYTSFNPLKKVSGLVISHGKVIYAGDSEVAKKIVELSGGEIVDLKGKYVMPAFFDSHLHLDELGMSLEMVDLRGAKSIEELIQRLKRGKGRIIFGFGWDQDELGEWPTRKELNAIDKPVFIYRKCFHVAVANDKMLELLNLTPSKDFDEDTGIIKEKSLEEARKVINERVLTVEDYVYYIKRAQEHLLDLGVKSVSFMSVNEKALRALFYLEREGKLSINVFAYVTPEVLDKLESIGLGRFQGNRLTIAGVKLFTDGSLGARTALLSKPYSDDPSTSGQLVMEREELIRITEKARSLGLDVAIHAIGDKALDVALDVFETTGFPGRIEHASLVRDDQLERVKNLKVRLSVQPHFIISDWWIVERVGEERVKWVYRFKDLMKVAELGFSTDSPIEPADPWLTVDAAVNRGKGKVKLYELTKDQALDIKDALHSYTYGSARVSLASDIGKLEPGFKAEYIILDRDPLVVK
B4: 102 (protein, listed as Lactobacillus plantarum)
chain: MATKTFKTLDDFLGTHFIYTYDNGWEYEWYAKNDHTVDYRIHGGMVAGRWVTDQKADIVMLTEGIYKISWTEPTGTDVALDFMPNEKKLHGTIFFPKWVEEHPEITVTYQNEHIDLMEQSREKYATYPKLVVPEFANITYMGDAGQNNEDVISEAPYKEMPNDIRNGKYFDQNYHRLNK
B5: 99 (protein, listed as Ralstonia solanacearum)
chain: MAIIDCHGHFTTAPTALEDWRKRQIANLATPALGPSPDDLKISDDALTEAIRANQLRLMQARGSDLTIFSPRASFMAHHIGDFHTSATWAAICNALCHRVSQLFPDHFVGAAMLPQSPGVDIRTCIPELARCIVDYGFVGVNLNPDPSGGHWTSPPLSDPYWFPLYEKLVEYDVPAMIHVSTSCNACFHTTGAHYLNADTTAFMQVLTSDLFRRFPTLKFVIPHGGGAVPYHWGRFRGLAQELKTPPLQEHLLHNVFFDTCVYHQPGIDLLTRVIPVDNILFASEMIGAVRGIDPETGHPFDDTRRYIDQAHTLSAEDRHKIYEGNARRVYPRLDARLKARGR
B6: 103 (protein)
chain: MAMEIPTEEIKFLKKEDVQNIDLNGMSKKERYEIWRRIPKVELHCHLDLTFSAEFFLKWARKYNLQPNMSDDEILDHYLFTKEGKSLAEFIRKAISVSDLYRDYDFIEDLAKWAVIEKYKEGVVLMEFRYSPTFVSSSYGLDVELIHKAFIKGIKNATELLNNKIHVALICISDTGHAAASIKHSGDFAIKHKHDFVGFDHGGREIDLKDHKDVYHSVRDHGLHLTVHAGEDATLPNLNTLYTAINILNVERIGHGIRVSESDELIELVKKKDILLEVCPISNLLLNNVKSMDTHPIRKLYDAGVKVSVNSDDPGMFLSNINDNYEKLYIHLNFTLEEFMIMNNWAFEKSFVSDDVKSELKALYF
modifications: Plasmodium yoelii yoelii
B7: 98 (protein)
chain: MAIIDCHGHYTTAPAAHDAFRKAQIAHHDDPQQPAPQYPHISDDALRESIEQHQLRLLRERGADMTIFSPRASTMAHHIGNEAVSQVWTQRCNDLIARVVQLYPHTFIGVCQLPQSPGVPISHSIAELERCVNELGFVGCNLNPDPSGGHWNGVPLTDRAWYPFFEKMVELDVPAMVHVSGSCNANFHATGAHYLNADTTAFMQFLEGDLFRDFPSLRFIIPHGGGAVPYHWGRFRGLADMLGKPPLATHVMRNVFFDTCVYHQPGIDLLFEVIDIDNILFGSEMVGAVRGIDPQTGHYFDDTKRYIDALTISDADKRKVFEGNARRVYPRLDAQLRARGL
modifications: Xanthomonas campestris pv.
B8: 104 (protein)
chain: MANILQEPIDFLKKEELKNIDLSQMSKKERYKIWKRIPKCELHCHLDLCFSADFFVSCIRKYNLQPNLSDEEVLDYYLFAKGGKSLGEFVEKAIKVADIFHDYEVIEDLAKHAVFNKYKEGVVLMEFRYSPTFVAFKYNLDIELIHQAIVKGIKEVVELLDHKIHVALMCIGDTGHEAANIKASADFCLKHKADFVGFDHGGHEVDLKEYKEIFDYVRESGVPLSVHAGEDVTLPNLNTLYSAIQVLKVERIGHGIRVAESQELIDMVKEKNILLEVCPISNVLLKNAKSMDTHPIRQLYDAGVKVSVNSDDPGMFLTNINDDYEELYTHLNFTLEDFMKMNEWALEKSFMDSNIKDKIKNLYF
modifications: Plasmodium Vivax
B9: 107 (protein, listed as Rhodopseudomonas palustris)
chain: MAIIDIHGHYTTAPKALEDWRNRQIAGIKDPSVMPKVSELKISDDELQASIIENQLKKMQERGSDLTVFSPRASFMAHHIGDFNVSSTWAAICNELCYRVSQLFPDNFIGAAMLPQSPGVDPKTCIPELEKCVKEYGFVAINLNPDPSGGHWTSPPLTDRIWYPIYEKMVELEIPAMIHVSTSCNTCFHTTGAHYLNADTTAFMQCVAGDLFKDFPELKFVIPHGGGAVPYHWGRFRGLAQEMKKPLLEDHVLNNIFFDTCVYHQPGIDLLNTVIPVDNVLFASEMIGAVRGIDPRTGFYYDDTKRYIEASTILTPEEKQQIYEGNARRVYPRLDAALKAKGK
B10: 93 (protein, listed as Mucilaginibacter paludis)
chain: MAKYGKHITINKNMRIVTLEEHISFPEMADQIPKAALGSFGRSEAMQRIAPKLADITGERLKSMDANGISMQVLSVDSSGVNLLSPQQGPAFATQYNDLIANRIAGFEKRFTAFAHLPMTAPFAAADELERAVKEHHFCGAMIRGLTGDQFLDHPQFAPIFERAQKLDVPIYLHPGLPPKGVADIYYSGLPNYSGMAEALACYGWGWHSETALHVLRLLFSGIFDQYPKLKLVIGHMGEMLPMMMARSEKAFKPGNGGANVRTLTDTFRSQVYLTTSGFFTQPPLKIALDTFGIDHVMFSVDYPFSTNEMGIEFLNEIDLPDEEVARIAHGNADKLLNLKA
B11: 105 (protein)
chain: MAIDFHVHLDLYPDPVAVARACEERQLTVLSVTTTPAAWRGTLALAAGRPHVWTALGFHPEVVSERAADLPWFDRYLPETRFVGEVGLDGSPSLRGTWTQQFAVFQHILRRCEDHGGRILSIHSRRAESEVLNCLEANPRSGTPILHWYSGSVTELRRAISLGCWFSVGPTMVRTQKGAALIRSMPRDRVLTETDGPFLELDGQAALPWDVKSVVEGLSKIWQIPASEVERIVKENVSRLLGTVR
modifications: Deinococcus radiodurans
B12: 97 (protein, listed as Sphingobium sp.)
chain: MAMMIIDCHGHYTVLPKAHDEWREQQKAAFKAGQPAPPYPEISDDEIRETIEANQLRLIKERGADMTIFSPRASAMAPHVGDQSVAVPWAQACNNLIARVVDLFPETFAGVCMLPQSPEADMTSSIAELERCVNELGFIGCNLNPDPGGGHFKHPPLTDRFWYPFYEKMVELDVPAMIHVSGSCNPAMHATGAYYLAADTIAFMQLLQGNLFADFPTLRFIIPHGGGAVPYHWGRFRGLADMLKQPSLDTLLMNNVFFDTCVYHQPGINLLADVIDNKNILFGSEMVGAVRGIDPTTGHYFDDTKRYIDALDISDQERHAIFEGNTRRVFPRLDAKLKARGL
B13: 101 (protein, listed as Aquifex aeolicus)
chain: MAQKIALCITGASGVIYGIKLLQVLEELDFSVDLVISRNAKVVLKEEHSLTFEEVLKGLKNVRIHEENDFTSPLASGSRLVHYRGVYVVPCSTNTLSCIANGINKNLIHRVGEVALKERVPLVLLVREAPYNEIHLENMLKITRMGGVVVPASPAFYHKPQSIDDMINFVVGKLLDVLRIEHNLYKRWRG
B14: 8 (protein, listed as Metarhizium anisopliae)
chain: MARGKINFEEAFELPTLADSSREQAALYIAPKDLDRYIYHIKHPLGERLQLANSHGIGYTIYSLTVPGIQGIPDQSKAEQHATTVNDWIANEIKDHRDRLGAFAALSMHDAAQAAAELERCVRQHGFHGALLNNYQHAGPDGETYLFYDQPAYDVFWQKCVELDVPVYLHPAAPAGNYYKQMYAQRKYLVGPPLSFANDVSLHLLGLVTNGVFDRFPKLKVVVGHLGEHIPFDFWRISHWLEDVERPLAAGRGDVMSKKDLLYYFKNNIWVTTSGHFSTPTVRYVADYLGPERIMFSVDTPYETIENGVGWFDGEEDALTRALGGEDGYKKVARENAKKLFKLTKYHDCDA

The first series is described as follows: 14C assay with IPTG-induced recombinant E. coli cells (14CO2 capture from [14C]-carboxyl-labeled dicamba). As to conditions: IPTG-induced recombinant E. coli cells; [14C]-carboxyl-labeled dicamba; 14CO2 capture.
Regarding B1, the “Dicamba Decarboxylase Activity” value was “No”.

Take B2: the “Dicamba Decarboxylase Activity” value is given as “No”.

Consider B3, for which the “Dicamba Decarboxylase Activity” value was “No”.

In the case of B4, the “Dicamba Decarboxylase Activity” value is on record as “No”.

With B5, the “Dicamba Decarboxylase Activity” value is “No”.

Turning to B6, the “Dicamba Decarboxylase Activity” value was “No”.

As to B7, the “Dicamba Decarboxylase Activity” value is listed as “No”.

Regarding B8, the “Dicamba Decarboxylase Activity” value is listed as “No”.

As to B9, the “Dicamba Decarboxylase Activity” value is recorded as “No”.

As to B10, the “Dicamba Decarboxylase Activity” value was “Low”.

As to B11, the “Dicamba Decarboxylase Activity” value is given as “No”.

As to B12, the “Dicamba Decarboxylase Activity” value is listed as “No”.

Regarding B13, the “Dicamba Decarboxylase Activity” value was “No”.

For B14, the “Dicamba Decarboxylase Activity” value is reported as “Low”.

Still in this series, the particulars now being: dicamba decarboxylation activity of the protein of the given SEQ ID NO.
With B1, the “Enzymatic Detection level” value was “No”.

In the case of B2, the “Enzymatic Detection level” value is given as “No”.

With B3, the “Enzymatic Detection level” value was “No”.

With B4, the “Enzymatic Detection level” value was “No”.

B5: the “Enzymatic Detection level” value was “No”.

As to B6, the “Enzymatic Detection level” value was “No”.

Regarding B7, the “Enzymatic Detection level” value is on record as “No”.

Take B8: the “Enzymatic Detection level” value is reported as “No”.

In the case of B9, the “Enzymatic Detection level” value was “No”.

In the case of B10, the “Enzymatic Detection level” value is “Low”.

Consider B11, for which the “Enzymatic Detection level” value is recorded as “No”.

As to B12, the “Enzymatic Detection level” value is on record as “No”.

On to B13, for which the “Enzymatic Detection level” value is given as “No”.

Turning to B14, the “Enzymatic Detection level” value is given as “Low”.
